Laboratory results taken from US11932672B2, “Fermentation process” (Syngulon S.A., priority 2017, dated 2024).
Entries after “also recorded” stand apart in the source; their conditions may differ.

Experiments:
[1] = system: Candida species; details: cited from earlier work
[2] = system: fungal microbial organism; details: cited from earlier work
[3] = system: pathogenic Gram-positive and Gram-negative bacteria; details: cited from earlier work
[4] = system: ColV; assay: Resistance to ColV conferred by plasmid-expressed immunity gene (vector selection marker); format: cell-based; details: gene expressed from plasmid pBACT5.0
Source text: (§1) The vector used is pBACT5.0 (FIG. 5, SEQ ID NO: 712).

[5] = system: bacteriocin C7; assay: Resistance to C7 conferred by plasmid-expressed immunity gene (vector selection marker); format: cell-based; details: gene expressed from plasmid (pBACT2.0, pBACT5.0)
Source text: The vector used is pBACT2.0 (FIG. 6, SEQ ID NO: 713).
as §1

[6] = system: bacteriocin B17; assay: Resistance to B17 conferred by plasmid-expressed immunity gene (selection on plates containing B17); format: cell-based, BL21(DE3)
Source text: We have separated genes from B17 immunity structures and cloned these into vectors behind an inducible promoter (Ptac).
We have separated the genes from B17 immunity structures and cloned them into vectors behind an inducible promoter (Ptac).
We inserted the B17 McbG immunity structure gene and cloned the latter into vectors behind the weak constitutive promoter (P24). A second construct was generated with a P24 LacO hybrid promoter which is an inducible promoter repressed in the presence of lad and active in presence of IPTG.
The BL21(DE3) strain was transformed with vector pMcbG1.0 or pMcbG1.1 (see FIG. 3 or 4). After transformation, transformants were selected on plates containing B17. Isolated colonies were re-grown and the plasmid they contained was analyzed by gel electrophoresis after treatment with relevant restriction enzymes.

For “Enterococcus faecalis peptide: Enterococcus faecalis peptide, SEQ ID NO: 1 (WLPPAGLLGRCGRWFRPWLLWLQSGAQYKWLGNLFGLGPK; listed as Enterococcus faecalis)”, the “neutralizing activity against Candida species” value [1] is given as “neutralizing activity”.

For botrycidin AJ1316, the antifungal activities [2] is listed as “antifungal activities”.

B1: Ent35-MccV: hybrid bacteriocin: N-terminal glycine, Enterocin CRL35, three-glycine linker, C-terminal Microcin V, SEQ ID NO: 3 (protein)
chain: GKYYGNGVSCNKKGCSVDWGRAIGIIGNNSAANLATGGAAGWKSGGGASGRDIAMAIGTLSGQFVAGGIGAAAGGVAGGAIYDYASTHKPNPAMSPSGLGGTIKQKPEGIPSEAWNYAAGRLCNWSPNNLSDVCL
modifications: Hybrid bacteriocin Ent35-MccV
In the case of B1, the antimicrobial activity [3] is listed as “displays antimicrobial activity”.

B2: Cvi: immunity gene giving resistance to ColV, SEQ ID NO: 709 (protein, listed as Escherichia coli)
chain: MDRKRTKLELLFAFIINATAIYIALAIYDCVFRGKDFLSMHTFCFSALMSAICYFVGDNYYSISDKIKRRSYENSDSK
modifications: gene (1)..(237) Cvi
In the case of B2, the “resistance to ColV” value [4] is reported as “give resistance”.

B3: MccE: immunity to the bacteriocin C7, nucleic acid SEQ ID NO: 700 (protein, listed as Escherichia coli)
chain: MAQKITPSKIVKHARELIIKGIESGDNSFVIFDVDGALERLEHYRCQLKSFFPNSSIAYSYKSNNLAQWCQIISGKGLYAEVCSVDEMNLAKRDGFNRIVFDGPLKKTSELLKAIEIGALIEVDNIDECKRLNELCKLHKLTCRIHLRLSHYYDDNLSRFGLSESEAINLLEMLISKSEYLILDGFHLHVGSNLPNAEKICKAVIQYHELILRYMPDDGTLNLGSGIPADSFSASSDNPTPCPEVFFSSIYDTIKNCFGTVCDKWNYIFEPGRHLVEDFGYFIGKVISTKNRYGVKVAQTNIGINWIPSIRNWDHSFTLFHNHNHISDDKSDEYIIAGFNCFECDCLFPSVILPSNLSDYLFSVRGCGAYDMQTGNQWTRNLYAVYTITNDVVNISRIHRRELDFRKYDVSLTPSGIKVNDEITLLYPALKYAEELYLLINQNKINFIKSMAWPAFVNNISDSVSFIEQSMIDNQNEKALILFIKYKTKIAGVVSFNIIDHANKTAYIGYWLGANFQGKGIVTNAINKLIQEYGDSGVIKRFVIKCIVDNKKSNATALRCGFTLEGVLQKAEILNGVSYDQNIYSKVIG
modifications: gene (1)..(1770) MccE gene
In the case of B3, the “resistance to bacteriocin C7” value [5] is reported as “give resistance”.

B4: McbE/F: pumps of the B17 immunity structure, construct pSyn2-McbE/F SEQ ID NO: 703 (protein, UniProt P05528 1-241; P05529 1-247, looked up)
Protein McbE: MVTLKMAIIFLMEQIRTPFSLIWTIMSPTVLFFFLHFNEIELHYGDTAWLGKQISWFVGYISFSVVLFNYCLYLVGRRESGFIATFVHNMDGRLLFIRSQLIASLIMSILYVFFFILVVLTGFQASPDYQIVMIILKSIYINAFMMVSLTFMASFRVTFQTASTIYSVLITVCMVSGIVSLKYNEGIVYWINQVNPIAIYSTILQSDQELSLMTIFFYSIMLIISIISALTFKTEPVWSSQ
Protein McbF: MTIPLLEINSLSFSYKVNLPPVFNNLSLKIEQGELIGLLGENPAGKTTLFNLIRGGVSNYEGTLKRNFSGGELVSLPQVINLSGTLRNEEVLDLICCFNKLTKKQAWTDVNHKWNDNFFIRYDKIRRKRTYTVSYGEKRWLIISLMVTLCKNARLFLLDEPTVGIDIQYRMMLWELINKITADGKTVFFSTHIFDELTRDKIPFYMLSKNSINRYSDMSDFIQSNNETTQKRHLLKKLWEQETDTWI
For B4, the “toxicity of expression to the strain” value ([6]; pSyn2-McbE/F under Ptac) was “toxic”.

B5: McbG: immunity to the bacteriocin B17, nucleic acid SEQ ID NO: 699 (protein, listed as Escherichia coli)
chain: MDIIEKRITKRHLSESELSGVNYYNCIFERIQLDNFNFRDCEFEKCRFVNCSIKNLKLNFFKLIDCEFKDCLLQGVNAADIMFPCTFSLVNCDLRFVDFISLRLQKSIFLSCRFRDCLFEETDLRKSDFTGSEFNNTEFRHSDLSHCDFSMTEGLDINPEINRILSIKIPQEAGLKILKRMGVVVGG
modifications: gene (1)..(564) McbG gene
With B5 the “resistance to B17” value ([6]; gene expressed from plasmid, Ptac not induced, weak P24 promoter or pBACT2.0) was “sufficient to give the phenotype of resistance”.

B6: C-terminal part of MccE: C-terminal portion of MccE, SEQ ID NO: 701 (amino acid SEQ ID NO: 706) (protein)
chain: FRKYDVSLTPSGIKVNDEITLLYPALKYAEELYLLINQNKINFIKSMAWPAFVNNISDSVSFIEQSMIDNQNEKALILFIKYKTKIAGVVSFNIIDHANKTAYIGYWLGANFQGKGIVTNAINKLIQEYGDSGVIKRFVIKCIVDNKKSNATALRCGFTLEGVLQKAEILNGVSYDQNIYSKVIG
modifications: C-terminal part of MccE protein
With B6 the “resistance to bacteriocin C7” value [5] was “sufficient to confer resistance; also recorded: give resistance” and the “resistance to bacteriocin C7” value ([5]; listed as truncated MccE) was “give resistance”.
